Experimental data taken from publication PMC3003441 (Nature cell biology, 2010).

Target: N-terminally flag-tagged Ubr1 (^fUbr1), full length (S. cerevisiae, UniProt P19812 1-1950)
Assay: co-IP

N-terminally flag-tagged Ubr1 (^fUbr1), full length, sequence (P19812 whole entry): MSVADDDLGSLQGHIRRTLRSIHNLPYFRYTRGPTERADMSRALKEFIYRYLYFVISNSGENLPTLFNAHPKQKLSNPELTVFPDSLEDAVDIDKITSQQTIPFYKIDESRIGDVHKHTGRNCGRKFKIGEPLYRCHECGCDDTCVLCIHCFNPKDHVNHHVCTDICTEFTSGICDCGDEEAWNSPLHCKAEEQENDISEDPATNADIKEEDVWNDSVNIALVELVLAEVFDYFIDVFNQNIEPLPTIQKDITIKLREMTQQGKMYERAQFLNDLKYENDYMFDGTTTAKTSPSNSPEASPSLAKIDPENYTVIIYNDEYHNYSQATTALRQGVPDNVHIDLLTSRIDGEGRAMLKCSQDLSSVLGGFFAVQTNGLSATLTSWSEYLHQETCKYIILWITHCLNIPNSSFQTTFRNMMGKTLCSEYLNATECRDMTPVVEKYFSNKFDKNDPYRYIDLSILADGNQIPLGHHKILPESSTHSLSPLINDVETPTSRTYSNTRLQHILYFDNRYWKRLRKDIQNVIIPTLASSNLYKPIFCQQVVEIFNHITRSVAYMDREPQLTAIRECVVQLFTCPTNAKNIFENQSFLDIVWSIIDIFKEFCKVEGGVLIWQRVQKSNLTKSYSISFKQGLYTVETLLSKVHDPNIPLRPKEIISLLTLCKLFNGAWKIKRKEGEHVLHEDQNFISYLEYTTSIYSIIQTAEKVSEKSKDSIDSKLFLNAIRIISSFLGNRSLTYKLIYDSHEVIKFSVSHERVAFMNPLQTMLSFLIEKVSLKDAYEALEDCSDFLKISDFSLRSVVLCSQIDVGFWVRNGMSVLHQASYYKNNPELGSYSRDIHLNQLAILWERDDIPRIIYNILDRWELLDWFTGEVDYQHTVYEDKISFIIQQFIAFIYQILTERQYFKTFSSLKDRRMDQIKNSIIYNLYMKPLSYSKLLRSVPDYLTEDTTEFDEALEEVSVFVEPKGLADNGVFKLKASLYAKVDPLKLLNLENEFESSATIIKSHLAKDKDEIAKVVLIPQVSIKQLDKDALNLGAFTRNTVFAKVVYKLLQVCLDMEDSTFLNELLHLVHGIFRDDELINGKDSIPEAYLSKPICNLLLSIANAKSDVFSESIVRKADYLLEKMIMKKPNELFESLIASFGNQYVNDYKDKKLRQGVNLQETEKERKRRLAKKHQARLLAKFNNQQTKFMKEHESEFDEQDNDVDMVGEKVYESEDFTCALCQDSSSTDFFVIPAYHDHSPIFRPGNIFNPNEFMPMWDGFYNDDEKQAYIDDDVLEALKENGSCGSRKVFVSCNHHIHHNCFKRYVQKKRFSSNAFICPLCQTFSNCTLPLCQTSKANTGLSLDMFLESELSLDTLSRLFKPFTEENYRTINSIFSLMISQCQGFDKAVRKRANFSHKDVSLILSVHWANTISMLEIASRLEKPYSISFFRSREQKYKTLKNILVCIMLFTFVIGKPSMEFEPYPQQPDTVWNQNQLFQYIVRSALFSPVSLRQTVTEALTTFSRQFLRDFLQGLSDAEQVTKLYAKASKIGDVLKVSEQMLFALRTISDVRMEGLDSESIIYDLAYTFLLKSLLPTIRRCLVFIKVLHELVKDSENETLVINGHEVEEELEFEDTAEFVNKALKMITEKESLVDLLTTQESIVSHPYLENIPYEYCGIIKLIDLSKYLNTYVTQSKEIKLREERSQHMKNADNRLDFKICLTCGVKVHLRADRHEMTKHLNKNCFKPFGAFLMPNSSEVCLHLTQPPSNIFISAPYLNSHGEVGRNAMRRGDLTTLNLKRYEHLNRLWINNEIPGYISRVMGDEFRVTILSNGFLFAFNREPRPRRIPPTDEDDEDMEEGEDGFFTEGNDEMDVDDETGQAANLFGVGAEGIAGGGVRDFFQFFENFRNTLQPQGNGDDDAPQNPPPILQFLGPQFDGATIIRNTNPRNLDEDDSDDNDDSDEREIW

binding result: binds
B1: flag-tagged Ufd4 (^fUfd4), purified (enzyme, S. cerevisiae, UniProt P33202 1-1483, looked up)
chain: MSENNSHNLDEHESHSENSDYMMDTQVEDDYDEDGHVQGEYSYYPDEDEDEHMLSSVGSFEADDGEDDDNDYHHEDDSGLLYGYHRTQNGSDEDRNEEEDGLERSHDNNEFGSNPLHLPDILETFAQRLEQRRQTSEGLGQHPVGRTLPEILSMIGGRMERSAESSARNERISKLIENTGNASEDPYIAMESLKELSENILMMNQMVVDRIIPMETLIGNIAAILSDKILREELELQMQACRCMYNLFEVCPESISIAVDEHVIPILQGKLVEISYIDLAEQVLETVEYISRVHGRDILKTGQLSIYVQFFDFLTIHAQRKAIAIVSNACSSIRTDDFKTIVEVLPTLKPIFSNATDQPILTRLVNAMYGICGALHGVDKFETLFSLDLIERIVQLVSIQDTPLENKLKCLDILTVLAMSSDVLSRELREKTDIVDMATRSFQHYSKSPNAGLHETLIYVPNSLLISISRFIVVLFPPEDERILSADKYTGNSDRGVISNQEKFDSLVQCLIPILVEIYTNAADFDVRRYVLIALLRVVSCINNSTAKAINDQLIKLIGSILAQKETASNANGTYSSEAGTLLVGGLSLLDLICKKFSELFFPSIKREGIFDLVKDLSVDFNNIDLKEDGNENISLSDEEGDLHSSIEECDEGDEEYDYEFTDMEIPDSVKPKKISIHIFRTLSLAYIKNKGVNLVNRVLSQMNVEQEAITEELHQIEGVVSILENPSTPDKTEEDWKGIWSVLKKCIFHEDFDVSGFEFTSTGLASSITKRITSSTVSHFILAKSFLEVFEDCIDRFLEILQSALTRLENFSIVDCGLHDGGGVSSLAKEIKIKLVYDGDASKDNIGTDLSSTIVSVHCIASFTSLNEFLRHRMVRMRFLNSLIPNLTSSSTEADREEEENCLDHMRKKNFDFFYDNEKVDMESTVFGVIFNTFVRRNRDLKTLWDDTHTIKFCKSLEGNNRESEAAEEANEGKKLRDFYKKREFAQVDTGSSADILTLLDFLHSCGVKSDSFINSKLSAKLARQLDEPLVVASGALPDWSLFLTRRFPFLFPFDTRMLFLQCTSFGYGRLIQLWKNKSKGSKDLRNDEALQQLGRITRRKLRISRKTIFATGLKILSKYGSSPDVLEIEYQEEAGTGLGPTLEFYSVVSKYFARKSLNMWRCNSYSYRSEMDVDTTDDYITTLLFPEPLNPFSNNEKVIELFGYLGTFVARSLLDNRILDFRFSKVFFELLHRMSTPNVTTVPSDVETCLLMIELVDPLLAKSLKYIVANKDDNMTLESLSLTFTVPGNDDIELIPGGCNKSLNSSNVEEYIHGVIDQILGKGIEKQLKAFIEGFSKVFSYERMLILFPDELVDIFGRVEEDWSMATLYTNLNAEHGYTMDSSIIHDFISIISAFGKHERRLFLQFLTGSPKLPIGGFKSLNPKFTVVLKHAEDGLTADEYLPSVMTCANYLKLPKYTSKDIMRSRLCQAIEEGAGAFLLS
